# PMC9482650, “Quantitative fragmentomics allow affinity mapping of interactomes” (Nature Communications, 2022)
# T1: NHERF3_4, Q5T2W1
# T1 sequence (Q5T2W1 373-468, limits assumed, looked up): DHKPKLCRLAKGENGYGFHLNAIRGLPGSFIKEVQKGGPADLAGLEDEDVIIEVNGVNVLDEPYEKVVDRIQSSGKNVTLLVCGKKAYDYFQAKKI
# T2: NHERF3_3, Q5T2W1
# T2 sequence (Q5T2W1 238-333, limits assumed, looked up): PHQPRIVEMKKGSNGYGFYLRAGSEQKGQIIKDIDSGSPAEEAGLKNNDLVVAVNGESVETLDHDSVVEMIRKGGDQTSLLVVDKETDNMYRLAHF
# T3: LRRC7, Q96NW7
# T3 sequence (Q96NW7 1440-1537, limits assumed, looked up): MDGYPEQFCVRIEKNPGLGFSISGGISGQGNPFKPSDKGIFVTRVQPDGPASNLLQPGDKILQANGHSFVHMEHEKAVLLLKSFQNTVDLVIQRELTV
# T4: TJP3_3, O95049
# T4 sequence (O95049 375-456, limits assumed, looked up): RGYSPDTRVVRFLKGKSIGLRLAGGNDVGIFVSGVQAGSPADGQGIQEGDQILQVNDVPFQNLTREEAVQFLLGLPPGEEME
# T5: HTRA3, P83110
# T5 sequence (P83110 354-453, limits assumed, looked up): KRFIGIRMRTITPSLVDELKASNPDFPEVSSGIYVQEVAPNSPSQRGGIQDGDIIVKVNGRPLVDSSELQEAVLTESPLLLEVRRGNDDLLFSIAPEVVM
# T6: APBA2_2, Q99767
# T6 sequence (Q99767 654-744, limits assumed, looked up): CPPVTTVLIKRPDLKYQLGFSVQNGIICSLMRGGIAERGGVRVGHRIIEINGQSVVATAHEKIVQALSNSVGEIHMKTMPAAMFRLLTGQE
# T7: FRMPD1, Q5SYB0
# T7 sequence (Q5SYB0 52-145, limits assumed, looked up): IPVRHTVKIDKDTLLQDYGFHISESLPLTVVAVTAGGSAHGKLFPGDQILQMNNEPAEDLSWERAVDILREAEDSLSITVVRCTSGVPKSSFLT
# T8: LNX2_3, Q8N448
# T8 sequence (Q8N448 463-564, limits assumed, looked up): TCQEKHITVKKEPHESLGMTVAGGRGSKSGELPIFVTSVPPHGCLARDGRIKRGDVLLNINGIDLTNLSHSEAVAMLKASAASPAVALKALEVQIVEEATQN
# T9: PDZD7_3, Q9H5P4
# T9 sequence (Q9H5P4 857-944, limits assumed, looked up): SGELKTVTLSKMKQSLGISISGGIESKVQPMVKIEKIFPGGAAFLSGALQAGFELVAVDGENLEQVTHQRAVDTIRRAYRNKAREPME
# T10: GRIP1_3, Q9Y3R0
# T10 sequence (Q9Y3R0 247-346, limits assumed, looked up): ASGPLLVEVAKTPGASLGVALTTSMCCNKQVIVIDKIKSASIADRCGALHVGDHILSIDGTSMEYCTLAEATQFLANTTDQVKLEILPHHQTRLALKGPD
# T11: ARHGAP21, Q5T5U3
# T11 sequence (Q5T5U3 45-169, limits assumed, looked up): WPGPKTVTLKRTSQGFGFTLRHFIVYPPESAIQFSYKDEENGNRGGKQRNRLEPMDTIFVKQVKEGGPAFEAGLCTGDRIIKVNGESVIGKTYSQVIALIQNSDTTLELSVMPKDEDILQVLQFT
# T12: APBA2_1, Q99767
# T12 sequence (Q99767 563-664, limits assumed, looked up): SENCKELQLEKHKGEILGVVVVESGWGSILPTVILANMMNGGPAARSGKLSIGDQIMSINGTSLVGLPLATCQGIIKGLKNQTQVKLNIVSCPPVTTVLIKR
# T13: PDZD2_2, O15018
# T13 sequence (O15018 329-429, limits assumed, looked up): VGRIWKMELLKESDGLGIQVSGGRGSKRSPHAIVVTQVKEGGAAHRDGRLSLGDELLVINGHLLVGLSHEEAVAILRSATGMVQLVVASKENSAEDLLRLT
# B1: JAM2, P57087 (peptide)
# chain: DFKHTKSFII
# B2: GRID2, O43424 (peptide)
# chain: GNDPDRGTSI
# Biological target: T1, NHERF3_4, Q5T2W1
# Assay: holdup assay
# Parameters: key: below the threshold = too weak to quantify, mostly under pKd 3.1 to 4
# Conditions: plain residues with an end cap or a label only (N-terminal biotin on a linker: ado-ado)
row,pKd,Binder
1,below the threshold,B1
2,below the threshold,B2

# Biological target: FRMPD3, Q5JV73
# Assay: holdup assay
# Parameters: key: below the threshold = too weak to quantify, mostly under pKd 3.1 to 4
# Conditions: plain residues with an end cap or a label only (N-terminal biotin on a linker: ado-ado)
# Sequence of FRMPD3, Q5JV73 (Q5JV73 12-100): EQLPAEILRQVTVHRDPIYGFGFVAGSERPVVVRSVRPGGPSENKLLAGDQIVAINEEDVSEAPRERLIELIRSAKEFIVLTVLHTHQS
row,pKd,Binder
1,below the threshold,B1
2,below the threshold,B2

# Biological target: T2, NHERF3_3, Q5T2W1
# Assay: holdup assay
# Parameters: key: below the threshold = too weak to quantify, mostly under pKd 3.1 to 4
# Conditions: plain residues with an end cap or a label only (N-terminal biotin on a linker: ado-ado)
row,pKd,Binder
1,below the threshold,B1
2,below the threshold,B2

# Biological target: Inadl_9, Q8NI35
# Assay: holdup assay
# Parameters: key: below the threshold = too weak to quantify, mostly under pKd 3.1 to 4
# Conditions: plain residues with an end cap or a label only (N-terminal biotin on a linker: ado-ado)
# Sequence of Inadl_9, Q8NI35 (Q8NI35 1530-1615): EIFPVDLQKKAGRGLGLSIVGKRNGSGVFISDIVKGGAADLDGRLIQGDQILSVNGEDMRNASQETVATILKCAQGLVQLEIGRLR
row,pKd,Binder
1,below the threshold,B1
2,below the threshold,B2

# Biological target: T3, LRRC7, Q96NW7
# Assay: holdup assay
# Parameters: key: below the threshold = too weak to quantify, mostly under pKd 3.1 to 4
# Conditions: plain residues with an end cap or a label only (N-terminal biotin on a linker: ado-ado)
row,pKd,Binder
1,below the threshold,B1
2,below the threshold,B2

# Biological target: MAST1, Q9Y2H9
# Assay: holdup assay
# Parameters: key: below the threshold = too weak to quantify, mostly under pKd 3.1 to 4
# Conditions: plain residues with an end cap or a label only (N-terminal biotin on a linker: ado-ado)
# Sequence of MAST1, Q9Y2H9 (Q9Y2H9 962-1065): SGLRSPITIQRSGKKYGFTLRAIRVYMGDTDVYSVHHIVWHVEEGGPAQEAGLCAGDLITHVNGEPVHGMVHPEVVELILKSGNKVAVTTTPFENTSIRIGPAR
row,pKd,Binder
1,3.7,B1
2,3.94,B2

# Biological target: TJP1_3, Q07157
# Assay: holdup assay
# Parameters: key: below the threshold = too weak to quantify, mostly under pKd 3.1 to 4
# Conditions: plain residues with an end cap or a label only (N-terminal biotin on a linker: ado-ado)
# Sequence of TJP1_3, Q07157 (Q07157 416-512): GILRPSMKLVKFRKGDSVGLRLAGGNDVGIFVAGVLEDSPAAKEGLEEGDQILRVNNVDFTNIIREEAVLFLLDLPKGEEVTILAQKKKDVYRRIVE
row,pKd,Binder
1,below the threshold,B1
2,below the threshold,B2

# Biological target: T4, TJP3_3, O95049
# Assay: holdup assay
# Parameters: key: below the threshold = too weak to quantify, mostly under pKd 3.1 to 4
# Conditions: plain residues with an end cap or a label only (N-terminal biotin on a linker: ado-ado)
row,pKd,Binder
1,below the threshold,B1
2,below the threshold,B2

# Biological target: GOPC, Q9HD26
# Assay: holdup assay
# Parameters: key: below the threshold = too weak to quantify, mostly under pKd 3.1 to 4
# Conditions: plain residues with an end cap or a label only (N-terminal biotin on a linker: ado-ado)
row,pKd,Binder
1,below the threshold,B1
2,below the threshold,B2

# Biological target: T5, HTRA3, P83110
# Assay: holdup assay
# Parameters: key: below the threshold = too weak to quantify, mostly under pKd 3.1 to 4
# Conditions: plain residues with an end cap or a label only (N-terminal biotin on a linker: ado-ado)
row,pKd,Binder
1,4.1,B1
2,below the threshold,B2

# Biological target: T6, APBA2_2, Q99767
# Assay: holdup assay
# Parameters: key: below the threshold = too weak to quantify, mostly under pKd 3.1 to 4
# Conditions: plain residues with an end cap or a label only (N-terminal biotin on a linker: ado-ado)
row,pKd,Binder
1,below the threshold,B1
2,below the threshold,B2

# Biological target: T7, FRMPD1, Q5SYB0
# Assay: holdup assay
# Parameters: key: below the threshold = too weak to quantify, mostly under pKd 3.1 to 4
# Conditions: plain residues with an end cap or a label only (N-terminal biotin on a linker: ado-ado)
row,pKd,Binder
1,below the threshold,B1
2,below the threshold,B2

# Biological target: LNX1_1, Q8TBB1
# Assay: holdup assay
# Parameters: key: below the threshold = too weak to quantify, mostly under pKd 3.1 to 4
# Conditions: plain residues with an end cap or a label only (N-terminal biotin on a linker: ado-ado)
# Sequence of LNX1_1, Q8TBB1 (Q8TBB1 261-371): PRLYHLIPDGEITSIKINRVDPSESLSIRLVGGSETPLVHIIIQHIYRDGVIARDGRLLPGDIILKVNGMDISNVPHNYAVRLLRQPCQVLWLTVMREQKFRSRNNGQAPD
row,pKd,Binder
1,below the threshold,B1
2,3.67,B2

# Biological target: T8, LNX2_3, Q8N448
# Assay: holdup assay
# Parameters: key: below the threshold = too weak to quantify, mostly under pKd 3.1 to 4
# Conditions: plain residues with an end cap or a label only (N-terminal biotin on a linker: ado-ado)
row,pKd,Binder
1,below the threshold,B1
2,below the threshold,B2

# Biological target: Inadl_5, Q8NI35
# Assay: holdup assay
# Parameters: key: below the threshold = too weak to quantify, mostly under pKd 3.1 to 4
# Conditions: plain residues with an end cap or a label only (N-terminal biotin on a linker: ado-ado)
# Sequence of Inadl_5, Q8NI35 (Q8NI35 673-780): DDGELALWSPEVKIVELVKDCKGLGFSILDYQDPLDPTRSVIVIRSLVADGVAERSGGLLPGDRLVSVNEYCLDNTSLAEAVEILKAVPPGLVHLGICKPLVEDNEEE
row,pKd,Binder
1,below the threshold,B1
2,below the threshold,B2

# Biological target: IL16_3, Q14005
# Assay: holdup assay
# Parameters: key: below the threshold = too weak to quantify, mostly under pKd 3.1 to 4
# Conditions: plain residues with an end cap or a label only (N-terminal biotin on a linker: ado-ado)
# Sequence of IL16_3, Q14005 (Q14005 1107-1207): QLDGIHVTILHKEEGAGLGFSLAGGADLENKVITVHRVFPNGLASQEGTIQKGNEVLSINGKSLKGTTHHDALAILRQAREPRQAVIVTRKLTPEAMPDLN
row,pKd,Binder
1,below the threshold,B1
2,below the threshold,B2

# Biological target: GRIP2_7, Q9C0E4
# Assay: holdup assay
# Parameters: key: below the threshold = too weak to quantify, mostly under pKd 3.1 to 4
# Conditions: plain residues with an end cap or a label only (N-terminal biotin on a linker: ado-ado)
# Sequence of GRIP2_7, Q9C0E4 (Q9C0E4 934-1023): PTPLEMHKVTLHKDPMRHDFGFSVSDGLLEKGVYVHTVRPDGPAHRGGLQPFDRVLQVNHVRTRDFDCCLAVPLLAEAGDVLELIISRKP
row,pKd,Binder
1,3.88,B1
2,below the threshold,B2

# Biological target: T9, PDZD7_3, Q9H5P4
# Assay: holdup assay
# Parameters: key: below the threshold = too weak to quantify, mostly under pKd 3.1 to 4
# Conditions: plain residues with an end cap or a label only (N-terminal biotin on a linker: ado-ado)
row,pKd,Binder
1,below the threshold,B1
2,4.1,B2

# Biological target: T10, GRIP1_3, Q9Y3R0
# Assay: holdup assay
# Parameters: key: below the threshold = too weak to quantify, mostly under pKd 3.1 to 4
# Conditions: plain residues with an end cap or a label only (N-terminal biotin on a linker: ado-ado)
row,pKd,Binder
1,below the threshold,B1
2,below the threshold,B2

# Biological target: T11, ARHGAP21, Q5T5U3
# Assay: holdup assay
# Parameters: key: below the threshold = too weak to quantify, mostly under pKd 3.1 to 4
# Conditions: plain residues with an end cap or a label only (N-terminal biotin on a linker: ado-ado)
row,pKd,Binder
1,below the threshold,B1
2,below the threshold,B2

# Biological target: DLG2_3, Q15700
# Assay: holdup assay
# Parameters: key: below the threshold = too weak to quantify, mostly under pKd 3.1 to 4
# Conditions: plain residues with an end cap or a label only (N-terminal biotin on a linker: ado-ado)
row,pKd,Binder
1,3.75,B1
2,3.69,B2

# Biological target: T12, APBA2_1, Q99767
# Assay: holdup assay
# Parameters: key: below the threshold = too weak to quantify, mostly under pKd 3.1 to 4
# Conditions: plain residues with an end cap or a label only (N-terminal biotin on a linker: ado-ado)
row,pKd,Binder
1,below the threshold,B1
2,below the threshold,B2

# Biological target: T13, PDZD2_2, O15018
# Assay: holdup assay
# Parameters: key: below the threshold = too weak to quantify, mostly under pKd 3.1 to 4
# Conditions: plain residues with an end cap or a label only (N-terminal biotin on a linker: ado-ado)
row,pKd,Binder
1,3.87,B1
2,4.76,B2

# Biological target: DLG1_1, Q12959
# Assay: holdup assay
# Parameters: key: below the threshold = too weak to quantify, mostly under pKd 3.1 to 4
# Conditions: plain residues with an end cap or a label only (N-terminal biotin on a linker: ado-ado)
row,pKd,Binder
1,below the threshold,B1
2,below the threshold,B2

# Biological target: Inadl_3, Q8NI35
# Assay: holdup assay
# Parameters: key: below the threshold = too weak to quantify, mostly under pKd 3.1 to 4
# Conditions: plain residues with an end cap or a label only (N-terminal biotin on a linker: ado-ado)
# Sequence of Inadl_3, Q8NI35 (Q8NI35 359-469): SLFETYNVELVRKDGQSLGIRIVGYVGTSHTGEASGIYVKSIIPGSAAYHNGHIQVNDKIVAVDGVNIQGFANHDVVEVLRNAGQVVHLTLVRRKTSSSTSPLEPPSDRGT
row,pKd,Binder
1,4.45,B1
2,below the threshold,B2
